Assay [1] deals with FcγRIIIa, F allele at position 158, on NK cells homozygous for F (human) (UniProt P08637). The assay is described as follows: cell-based or functional assay.
Assay [2] deals with FcγRIIIa, V allele at position 158, on NK cells homozygous for V (human) (UniProt P08637). Put plainly: cell-based or functional assay.

Regarding “aggregated IgG1 expressing GM 17+,1+,2+ allotypes (antibody)”, in assay [1], the Inhibition of ADCC (cetuximab-mediated ADCC of A431 cells by NK cells) amounted to 50.3% and the Inhibition of ADCC (trastuzumab-mediated ADCC of SKBR-3 cells by NK cells) was determined as 27.8%. In addition, in assay [2], the Inhibition of ADCC (cetuximab-mediated ADCC of A431 cells by NK cells) was determined as 83.3% and the Inhibition of ADCC (trastuzumab-mediated ADCC of SKBR-3 cells by NK cells) is 73.8%.
For “aggregated IgG1 expressing GM 3+,1-,2- allotypes (antibody)”, in that order: 76.5%, 94.5%, 79.4% and 97.4%.
